Reference: the DeepSol protein solubility set

Test: soluble on expression in E. coli; label from the status in PepcDB or PDB records

Row | Sequence | soluble on expression in E. coli
1 | MSYQNLVSEAGLTQKLLIHGDKELFQHELKTIFARNWLFLTHDSLIPSPGDYVKAKMGVDEVIVSRQNDGSVRAFLNVCRHRGKTLVHAEAGNAKGFVCGYHGWGYGSNGELQSVPFEKELYGDAIKKKCLGLKEVPRIESFHGFIYGCFDAEAPPLIDYLGDAAWYLEPTFKYSGGLELVGPPGKVVVKANWKSFAENFVGDGYHVGWTHAAALRAGQSVFSSIAGNAKLPPEGAGLQMTSKYGSGMGVFWGYYSGNFSADMIPDLMAFGAAKQEKLAKEIGDVRARIYRSFLNGTIFPNNSFLTGSAAFRVWNPIDENTTEVWTYAFVEKDMPEDLKRRVADAVQRSIGPAGFWESDDNENMETMSQNGKKYQSSNIDQIASLGFGKDVYGDECYPGVVGKSAIGETSYRGFYRAYQAHISSSNWAEFENASRNWHIEHTKTTDR | soluble
2 | MTAFEEFGIIPELSDALSSLNWTLPTAVQSEAIPAILGGADALIAAETGSGKTGAFSLPIAQIVWERRKSAEKSQNSGQKPENSREFQLNREDRDVSLQIDKTGLNCESRVAKEWHGARATAGLYGNGKYYYEVTVTRDGLCRVGWATLSGSLKIGTDFESFGYGGTGKKSFGKKFDDYGTSFTTNDVLGCFLDLDELKIWWSKNGVQFPVAYQIDKKFKTAATCLYPAILCQNSGLGVNFGGSAAFKYPPGTQYVAVAQAEDGNLKWWSAAEQLSIDSSTPLCVILEPTRELVQQTFQNIQTFASVLDSPKIRCVTLAAGENMNQILRTLETGCDIVVGTPSRVFDLIHTGKLATKNLQFVVIDEIDQFLAGKNNCAHQIESIFRVLPLVAQDGTRRQVIACSATLHNFEVCRFADRHMSFPQWIDLKGADCVSADVHHVVCHVDASEDKQWIRQMHQQVHLEDDHVHDGDQIRPGTTDKDTISLGTKILKGIYVVRAIHALQMDKAIVFCRTKQQCDHMEHFLQQNNLSAACLHGDRSAEERQSSLEGFKKGIIRFLVCSDVVARGLDVQGVPFVISVTLPDEKSMYVHRIGRVGRAERMGLSISLVSEYEEKAWYHKCRSRGVNCTNTKDISKGGCTIWLQEKKMLGEIEEHLGATISTVDSDFNVPVDEFDGKVVYGERRTGGANFDTHVLQLASSASQLADLETKMQLEYLNNNRHVFEIHSM | not soluble
3 | MTAFFCTLQDDRIISLDWQEGADIDLIYLAPGRTLPSQKGAVSHVLQGKDLRKGWSIDHGELTVGVSSLAVAVKNANGDVLGAVAVAGLSASVESKIDTIRDTLKETACAIA | not soluble
4 | MTAINFNSIYTTYYRRAFLFTLSYVHNDLVAEDIVSEAIIYLWELSKKQEIPSIEAVLITYIRSKSLNYLKHLQVQENVYQNLTDKGQRELEIRISTLEACDPKEVMSEELRSKVKTLLAGMPEKTRIAFISDRLDGKSHKEIAEELGISVKGVEYHISKAVKLLRDNLKEYAPFLIFFI | not soluble
5 | MTAISCSPRPRYASRMPVLSKTVEVTADAASIMAIVADIERYPEWNEGVKGAWVLARYDDGRPSQVRLDTAVQGIEGTYIHAVYYPGENQIQTVMQQGELFAKQEQLFSVVATGAASLLTVDMDVQVTMPVPEPMVKMLLNNVLEHLAENLKQRAEQLAAS | soluble
6 | MTAQLQSESTSKIVLVTGGAGYIGSHTVVELIENGYDCVVADNLSNSTYDSVARLEVLTKHHIPFYEVDLCDRKGLEKVFKEYKIDSVIHFAGLKAVGESTQIPLRYYHNNILGTVVLLELMQQYNVSKFVFSSSATVYGDATRFPNMIPIPEECPLGPTNPYGHTKYAIENILNDLYNSDKKSWKFAILRYFNPIGAHPSGLIGEDPLGIPNNLLPYMAQVAVGRREKLYIFGDDYDSRDGTPIRDYIHVVDLAKGHIAALQYLEAYNENEGLCREWNLGSGKGSTVFEVYHAFCKASGIDLPYKVTGRRAGDVLNLTAKPDRAKRELKWQTELQVEDSCKDLWKWTTENPFGYQLRGVEARFSAEDMRYDARFVTIGAGTRFQATFANLGASIVDLKVNGQSVVLGYENEEGYLNPDSAYIGATIGRYANRISKGKFSLCNKDYQLTVNNGVNANHSSIGSFHRKRFLGPIIQNPSKDVFTAEYMLIDNEKDTEFPGDLLVTIQYTVNVAQKSLEIVYKGKLTAGEATPINLTNHSYFNLNKPYGDTIEGTEIMVRSKKSVDVDKNMIPTGNIVDREIATFNSTKPTVLGPKNPQFDCCFVVDENAKPSQINTLNNELTLIVKAFHPDSNITLEVLSTEPTYQFYTGDFLSAGYEARQGFAIEPGRYIDAINQENWKDCVTLKNGETYGSKIVYRFS | soluble
7 | MTARYIAIDWGSTNLRAWLYQGDHCLESRQSEAGVTRLNGKSPAAVLAEVTTDWREENTPVVMAGMVGSNVGWKVAPYLSVPARFSSIGEQLTSVGDNIWIIPGLCVSHDDNHNVMRGEETQLIGARALAPSSLYVMPGTHCKWVQADSQQINDFRTVMTGELHHLLLNHSLIGAGLPPQENSADAFAAGLERGLNAPAILPQLFEVRASHVLGTLPREQVSEFLSGLLIGAEVASMRDYVTHQHAITLVAGTSLTARYQQAFQAMGCDVAAVAGDTAFQAGIRSIAHAVAN | soluble
8 | MTATASDDEAVTALALSAAKGNGRALEAFIKATQQDVWRFVAYLSDVGSADDLTQETFLRAIGAIPRFSARSSARTWLLAIARHVVADHIRHVRSRPRTTRGARPEHLIDGD | soluble
9 | MTATATEGAKPPFVSRSVLVTGGNRGIGLAIAQRLAADGHKVAVTHRGSGAPKGLFGVEVDVTDSDAVDRAFTAVEEHQGPVEVLVSNAGLSADAFLMRMTEEKFEKVINANLTGAFRVAQRASRSMQRNKFGRMIFIGSVSGLWGIGNQANYAASKAGVIGMARSIARELSKANVTANVVAPGYIDTDMTRALDERIQQGALQFIPAKRVGTPAEVAGVVSFLASEDASYISGAVIPVDGGMGMGH | soluble
10 | MTATLDDARAALDRIADPASGQGLVKAGLVQGLVVRNGRAGFMLEVPASVVASYAPVREAAEKALAALPGVEQAQVVLTAQAAEGATRVRKGAKISEDPQARMVPPPEAEKPQHVRHVIAVASGKGGVGKSTVSTNLAVAFAKMGLRVGLLDADIYGPSAPKMMGVDGDPLFENEKLQPLEAHGVKLMSIGFIVDEGKAMIWRGPMASSAVRQMIHDVAWGSEAQPLDVLVVDLPPGTGDVQLTLVQKLRIDGAVLVTTPQEIALIDARRAAAMFEKTATPILGLIENMAFFADPSTGAPIPIFGEGGGVAEAARLNVPLLGRVPIEIAVRLGGDQGVPAVIGEPKGQAAEVFIGAAKVLWKSVSHLEHHHHHH | soluble
11 | MTATNKQVILKDYVSGFPTESDFDFTTTTVELRVPEGTNSVLVKNLYLSCDPYMRIRMGKPDPSTAALAQAYTPGQPIQGYGVSRIIESGHPDYKKGDLLWGIVAWEEYSVITPMTHAHFKIQHTDVPLSYYTGLLGMPGMTAYAGFYEVCSPKEGETVYVSAASGAVGQLVGQLAKMMGCYVVGSAGSKEKVDLLKTKFGFDDAFNYKEESDLTAALKRCFPNGIDIYFENVGGKMLDAVLVNMNMHGRIAVCGMISQYNLENQEGVHNLSNIIYKRIRIQGFVVSDFYDKYSKFLEFVLPHIREGKITYVEDVADGLEKAPEALVGLFHGKNVGKQVVVVARE | soluble
12 | MTDAGSSFCPECGDPVDSVGGDGATRREQSLCDSCYFAAFDLVDAPDTIEVMVCARCGAVHRGNRWVDIGADDYVDVAVAETTEALGVHLEAEDVDWEVRPEKLDDNTVRMHATFTGVVRDTHRTEQVAVTVKVSRQTCQRCGRIAGESYASTVQVRAVGRDPTSEETDRAAELAHRIVADMEATGDREAFVTEIGDAESGTDIKLSTTKIGLKLARKLVEEFGGDFEDHETLITEDDDGNEVYRVTYAVRLPEFVPGDVVDIAADDGGPVLVQSNHGNLKGVRVTTGEPYEASFEDGDSPDARKLGAVADATEATVVTVEDDAAIQILDPDTYEAQTVARPDYVDPDASTVPALKSRAGLHVLPDALEHHHHHH | soluble
13 | MTDALGELEADVRADLAMIAHPGAAWLEPKIGPDGKPALDVLVVGAGQSGIAIGFGLMRSRVSNILLLDKAEEGKEGPWLTYARMPTLRSPKDYTGPDLDIPSLTYQSWHEARFGKQSWQELGLIERGHWAEYLLWLRRTVGLPVRNACELLEIAPASDGLLTARVKRAGEVETLYARKIVLATGQEGMGGWMIPEPLRHLPSGSVATVADDIDFEKLRGKRVAVIGAGASAFDNAATALEAGAAEVHLLCRRTQIQVIQPYRWLTFRGFLRHLSDLDDAWRWRFMRTILEMREGFPQATYDRCARHANFTLHEGAPVEAARETGKGVELQTPRGAIPADFVICGTGIDMSFAGRGELAAFAGNIATWADRYQPPSSERNERLGRFPYLADDYAFTERVPGETPWISDIHLFAIASTMSFGPSGSSINAMTTAVPKLVHGLTRGLFRADIARHWASLSAYDVPQAVVTRPARKTGELEHHHHHH | soluble
14 | MTDFQKQFFARLNIEEKQKVSFEDLSNIMYAMAQTVPFENLNVLEKNFKEISQENLKEKILVNNRGGLCYELNPTMYYFLKDAGFDVYLVSGTVYNAANSIWAVDSGHIATILKHHNELYLIEVGFGSYLPLAPVPFSGEVVQSVTGDYRIRKEMTEKGNYMLEMRKNDEFLDQSSTDDWTLGYAFYIEEVDEKKQMQHKKLLLNTMAHHLTKYLLL | not soluble
15 | MTDGSMDIDAMLEGGLEMAKNDRSQSRQRSPARSNRSRSRSKDRKSSSRRSRSRSRDRRGDRGDRRRSRSRSKDRRTTRRRSPSRERRRSRSRDRGAPRRRSRTRSRDRRRSPPRRRDRRTPPRRSPGRRSPPRSRLPGPERRDVMPFNPRHSPPKNAKLELTAEERDQRTLLIMQIARDTRPRDLEEFFSAVGAVRDVRIITDSRTGRSKGICYVEFWDEESVPLGLALNGQRLMGAPLQIQRTCAERNRAANSSVASTLGFVAPGNKGPTHVLVENLHPKIDEKMIRDIFESFGRIEKIDLEVDSNRENRGFATITFRNADDAQKSCEQLNNFELAGRCIRLSIKQESQAPAVKKEEASIHQRSLDDVGDRQGFSLGAGGRQQLMAKLAQGTGSGMELTASAQMAAQHAGHSQIPSIATQCFLLSNMFDPSKETEPAWDHDIREDVIEQCLAHGGALHVFVDKGSEQGNVYVKCPSIVIAHQAVSALHGRWFSGKVITANYVPVNSYHDLFPDAVHARIVLTTRGAAPVVPIVPMVPVVPPQGIANGYGAYGMMAPAHGAPPPPPPQQQGQYGGYGRY | not soluble
16 | MTDHNLLPEPKKILWRVSELNRNARVILEQTFPLLWVSGEISNLKRYPSGHWYFSLKDDSAQVRCVMFRHKNLYLDWIPQEGMQVEAQALVTLYEARGEFQLTVEQLRRAGLGALFEAFERLKARLQQEGLFSPEYKQPLPRFPRQIGIITSPNTAALRDVLTTLQLRLPSIPVVIYPAPVQGEGSAAAITTALHTAAVRGECDVLILCRGGGSIEDLWAFNEEIVARAIAACPIPIVTGIGHETDFTIADFVADARAPTPTGAAQLASPDRQAILHRLQYWLHRLQQTMERHIERRMQATDLLAHRLIHPGERIRHQQMHLLQLRGRLQNAWNRQVEIRTWRIEETGRRIHSAKPDIQAGIRHQQELAARLQRAMAHRLENLQFKLRQQQQHLIHLDPKAVLARGYSIAYTARGDILHDSRQTRAGDNVRLVFASGWAKADITETGE | not soluble
17 | MTDILIDNTATETVRTLIRAFPLVPVSQPPEQGSYLLAEHDTVSLRLVGEKSSVIVDFASGAAQYRRTKGGGELIAKAVNHTAHPTVWDATAGLGRDSFVLASLGLAVTAFEQHPAVACLLSDGIRRALLNPETQNTAAHINLHFGNAAEQMPALVQTQGKPDIVYLDPMYPERRKSAAVKKEMTYFHRLVGEAQDEAALLHTARQTAKKRVVVKRPRLGEHLAGQDPAYQYTGKSTRFDVYLPYGTDKG | not soluble
